B1: Twister Ribozyme (parent)
chain: AACACUGCCAAUGCCGGUCCCAAGCCCGGAUAAAAGUGGAGGGGGCGG

Variants of: B1
Test: self-cleavage, relative activity (ratio to wild type); higher = more cleavage; co-transcriptional
Work on AACACUGCCAAUGCCGGUCCGAAGCCGGGAUAAAAGUGGAGGGGGCGG [C21G C27G] yielded a self-cleavage of 0.138. With AACACUGCCAAUGCCGGUCCUAAGCCGGGAUAAAAGUGGAGGGGGCGG [C21U C27G] the self-cleavage was 0.0722. Work on AACACUGCCAAUGCCGGUCCAAAGCCCGGAUAAAAGUGGAGGGGACGG [C21A G45A] yielded a self-cleavage of 0.114. For AACACUGCCAAUGCCGGUCCAAAGCCCGGAUAAAAGUGGAGGGGUCGG [C21A G45U], the self-cleavage was 0.121. AACACUGCCAAUGCCGGUCCAAAGCCCGGAUAAAAGUGGAGGGGCCGG [C21A G45C] showed a self-cleavage of 0.109. AACACUGCCAAUGCCGGUCCUAAGCCCGGAUAAAAUUGGAGGGGGCGG [C21U G36U] gave a self-cleavage of 0.0467. AACACUGCCAAUGCCGGUCCGAAGCCCGGAUAAAAGUGGAGGGGGCGA [C21G G48A] gave a self-cleavage of 0.146. Work on AACACUGCCAAUGCCGGUCCUAAGCCCGGAUAAAAGUGGAGCGGGCGG [C21U G42C] yielded a self-cleavage of 0.118. Variant AACACUGCCAAUGCCGGUCCUAAGGCCGGAUAAAAGUGGAGGGGGCGG [C21U C25G] has a self-cleavage of 0.0992. With AACACUGCCAAUGCCGGUCCUAAGACCGGAUAAAAGUGGAGGGGGCGG [C21U C25A] the self-cleavage was 0.061. With AACACUGCCAAUGCCGGUCCUACGCCCGGAUAAAAGUGGAGGGGGCGG [C21U A23C] the self-cleavage was 0.0826. Work on AACACUGCCAAUGCCGGUCCUAUGCCCGGAUAAAAGUGGAGGGGGCGG [C21U A23U] yielded a self-cleavage of 0.0638. AACACUGCCAAUGCCGGUCCUAGGCCCGGAUAAAAGUGGAGGGGGCGG [C21U A23G] showed a self-cleavage of 0.0801. In the case of AACACUGCCAAUGCCGGUCCUAAGCCCUGAUAAAAGUGGAGGGGGCGG [C21U G28U], the self-cleavage is reported as 0.102. Work on AACACUGCCAAUGCCGGUCCGAAGCCCGGAUUAAAGUGGAGGGGGCGG [C21G A32U] yielded a self-cleavage of 0.196. For AACACUGCCAAUGCCGGUCCGAAGCCCGGAUAACAGUGGAGGGGGCGG [C21G A34C], the self-cleavage was 0.0532. AACACUGCCAAUGCCGGUCCAAAGCCCGGAUAAAAGUGGAGGGGGCAG [C21A G47A] showed a self-cleavage of 0.135. In the case of AACACUGCCAAUGCCGGUCCGAAGCCCGGAGAAAAGUGGAGGGGGCGG [C21G U31G], the self-cleavage is reported as 0.0712. In the case of AACACUGCCAAUGCCGGUCCAAAGCCCGGAUAAUAGUGGAGGGGGCGG [C21A A34U], the self-cleavage is reported as 0.102. For AACACUGCCAAUGCCGGUCCGAAGCCCGGAUAAAAGUGGUGGGGGCGG [C21G A40U], the self-cleavage was 0.129. AACACUGCCAAUGCCGGUCCGAAGCCCGGAUAAAAGGGGAGGGGGCGG [C21G U37G] showed a self-cleavage of 0.083. Variant AACACUGCCAAUGCCGGUCCAAAGCCCGGAUAAAAGUGGAGGUGGCGG [C21A G43U] has a self-cleavage of 0.0849. AACACUGCCAAUGCCGGUCCAAAGCCCGGAUAAAAGUGGAGGCGGCGG [C21A G43C] gave a self-cleavage of 0.0785. AACACUGCCAAUGCCGGUCCAAAGCCCGGAUAAAAGUGGAGGAGGCGG [C21A G43A] gave a self-cleavage of 0.0637. In the case of AACACUGCCAAUGCCGGUCCUAAGCCCGGAUAACAGUGGAGGGGGCGG [C21U A34C], the self-cleavage is reported as 0.0844. AACACUGCCAAUGCCGGUCCAAAGCCCGGAUAAAAAUGGAGGGGGCGG [C21A G36A] gave a self-cleavage of 0.0703. With AACACUGCCAAUGCCGGUCCAAAGGCCGGAUAAAAGUGGAGGGGGCGG [C21A C25G] the self-cleavage was 0.0507. Work on AACACUGCCAAUGCCGGUCCAAAGUCCGGAUAAAAGUGGAGGGGGCGG [C21A C25U] yielded a self-cleavage of 0.0609. Variant AACACUGCCAAUGCCGGUCCAAAGACCGGAUAAAAGUGGAGGGGGCGG [C21A C25A] has a self-cleavage of 0.101. With AACACUGCCAAUGCCGGUCCUAAGCCCGGAUAAAAGUAGAGGGGGCGG [C21U G38A] the self-cleavage was 0.0657. AACACUGCCAAUGCCGGUCCUAAGCCCGGAUAAAAGUCGAGGGGGCGG [C21U G38C] showed a self-cleavage of 0.0755. For AACACUGCCAAUGCCGGUCCAAAGCCCGGACAAAAGUGGAGGGGGCGG [C21A U31C], the self-cleavage was 0.153. AACACUGCCAAUGCCGGUCCAAAGCCCGGAGAAAAGUGGAGGGGGCGG [C21A U31G] gave a self-cleavage of 0.119. AACACUGCCAAUGCCGGUCCAAAGCCCGGAAAAAAGUGGAGGGGGCGG [C21A U31A] gave a self-cleavage of 0.0618. For AACACUGCCAAUGCCGGUCCAAAGCCCGGAUAAAAGUGGAGGGGGCGC [C21A G48C], the self-cleavage was 0.171. Work on AACACUGCCAAUGCCGGUCCGAAACCCGGAUAAAAGUGGAGGGGGCGG [C21G G24A] yielded a self-cleavage of 0.0681. AACACUGCCAAUGCCGGUCCGAAUCCCGGAUAAAAGUGGAGGGGGCGG [C21G G24U] showed a self-cleavage of 0.0976. Work on AACACUGCCAAUGCCGGUCCGAACCCCGGAUAAAAGUGGAGGGGGCGG [C21G G24C] yielded a self-cleavage of 0.109. AACACUGCCAAUGCCGGUCCUAAGCCCGGAUAAAAGUGGAGGUGGCGG [C21U G43U] gave a self-cleavage of 0.106. For AACACUGCCAAUGCCGGUCCUAAGCCCGGAUAAAAGUGCAGGGGGCGG [C21U G39C], the self-cleavage was 0.114. In the case of AACACUGCCAAUGCCGGUCCUAAGCCCGGAUAAAAGUGUAGGGGGCGG [C21U G39U], the self-cleavage is reported as 0.0656. AACACUGCCAAUGCCGGUCCAAAGCGCGGAUAAAAGUGGAGGGGGCGG [C21A C26G] showed a self-cleavage of 0.0786. Work on AACACUGCCAAUGCCGGUCCUAAGCACGGAUAAAAGUGGAGGGGGCGG [C21U C26A] yielded a self-cleavage of 0.0796. In the case of AACACUGCCAAUGCCGGUCCGAAGCCCGGAUAAAAGUAGAGGGGGCGG [C21G G38A], the self-cleavage is reported as 0.11. In the case of AACACUGCCAAUGCCGGUCCAAAGCCCGCAUAAAAGUGGAGGGGGCGG [C21A G29C], the self-cleavage is reported as 0.0813. Work on AACACUGCCAAUGCCGGUCCAAAGCCCGAAUAAAAGUGGAGGGGGCGG [C21A G29A] yielded a self-cleavage of 0.132. Variant AACACUGCCAAUGCCGGUCCAAAGCCCGGAUAAAAGAGGAGGGGGCGG [C21A U37A] has a self-cleavage of 0.105. Work on AACACUGCCAAUGCCGGUCCAAAUCCCGGAUAAAAGUGGAGGGGGCGG [C21A G24U] yielded a self-cleavage of 0.0879. With AACACUGCCAAUGCCGGUCCGAAGCCCGGCUAAAAGUGGAGGGGGCGG [C21G A30C] the self-cleavage was 0.0405. Variant AACACUGCCAAUGCCGGUCCGAAGCCCGGGUAAAAGUGGAGGGGGCGG [C21G A30G] has a self-cleavage of 0.0493. For AACACUGCCAAUGCCGGUCCGAAGCCCGGAUAAAAGUGGAGGGGGCCG [C21G G47C], the self-cleavage was 0.0639. AACACUGCCAAUGCCGGUCCAAAGCCCGGAUAAAAGUGGACGGGGCGG [C21A G41C] gave a self-cleavage of 0.457. Work on AACACUGCCAAUGCCGGUCCAAAGCCCGGAUAAAAGUGGAUGGGGCGG [C21A G41U] yielded a self-cleavage of 0.678. Work on AACACUGCCAAUGCCGGUCCGAAGCCCGGAUAAAACUGGAGGGGGCGG [C21G G36C] yielded a self-cleavage of 0.0148.
